# pKd: −log10 of the molar value.
# Experiments:
# [1] = target: human importin α5 (human) (UniProt P52294); experiment: fluorescence polarisation; S2 Fig D; method not named for this panel, taken as the paper's fluorescence polarization assay; dark and blue light, binding light independent
# [2] = target: human importin α5 (human) (UniProt P52294); experiment: fluorescence polarisation; competition, dark (value read after 5 minutes in absence of light); 25 nM TAMRA peptide …, 50 mM Tris pH 7.5, 100 mM NaCl, 1 mM DTT, 25°C; Kd from IC50
# [3] = target: human importin α7 (human) (UniProt O60684); experiment: as above
# [4] = target: human importin α5 (human) (UniProt P52294); experiment: fluorescence polarisation; competition, under blue light (455 nm, 6 mW/cm^2; value read after 2 minutes of illumination); 25 nM TAMRA peptide …, 50 mM Tris pH 7.5, 100 mM NaCl, 1 mM DTT, 25°C; Kd from IC50
# [5] = target: human importin α7 (human) (UniProt O60684); experiment: as above
pKd [1],pKd [2],pKd [3],pKd [4],pKd [5],Substance
9.00,–,–,–,–,AsLOV2cMyc (from UniProt O49003 404-546)
–,5.82,5.70,6.60,6.47,AsLOV2cNLS (from UniProt O49003 404-546) (designed binder)

# Source: publication PMC4471001
